Key:
[1] = system: HeLa Kyoto; test: solubility in G1/S (NP-40 vs SDS abundance) (log2 ratio); higher = more soluble; details: cell cycle stage: G1/S
[2] = system: HeLa Kyoto; test: thermal stability score vs G1/S (z-score of summed log2 fold changes over temperatures); higher = more thermally stable than in G1/S
[3] = system: HeLa Kyoto; test: solubility change mitosis vs G1/S (difference of NP-40 vs SDS log2 ratios) (log2 ratio difference); higher = more soluble in mitosis
[4] = system: HeLa Kyoto; test: melting temperature (median over replicates), in situ; higher = more thermally stable
[5] = cell cycle stage: early G1 (4.5 h after nocodazole release)
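Throughout, for melting temperature (median over replicates), in situ: HeLa Kyoto cells synchronized by double thymidine or nocodazole block, proteins quantified by TMT10plex mass spectrometry, three independent biological replicates.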
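Throughout, for solubility change mitosis vs G1/S (difference of NP-40 vs SDS log2 ratios): synchronized HeLa Kyoto cells (double thymidine block for G1/S, nocodazole release for mitosis), protein amounts in NP-40 versus SDS lysates quantified by mass spectrometry, three biological replicates.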
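Throughout, for solubility in G1/S (NP-40 vs SDS abundance): HeLa Kyoto cells arrested at G1/S by double thymidine block, proteins quantified by TMT10plex mass spectrometry in mild NP-40 versus SDS extracts, three biological replicates.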
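Throughout, for thermal stability score vs G1/S (z-score of summed log2 fold changes over temperatures): synchronized HeLa Kyoto cells, proteins quantified by TMT10plex mass spectrometry, three biological replicates, mitosis taken 0.5 h after nocodazole release, G1/S directly after double thymidine block.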

Sequence	solubility in G1/S (log2) [1]	thermal stability score [2, 5]	thermal stability score ([2]; cell cycle stage: mitosis)	solubility change mitosis (log2) [3]	melting temperature ([4]; cell cycle stage: G1/S) [°C]	melting temperature ([4]; cell cycle stage: mitosis) [°C]
MSTGDSFETRFEKMDNLLRDPKSEVNSDCLLDGLDALVYDLDFPALRKNKNIDNFLSRYKDTINKIRDLRMKAEDYEVVKVIGRGAFGEVQLVRHKSTRKVYAMKLLSKFEMIKRSDSAFFWEERDIMAFANSPWVVQLFYAFQDDRYLYMVMEYMPGGDLVNLMSNYDVPEKWARFYTAEVVLALDAIHSMGFIHRDVKPDNMLLDKSGHLKLADFGTCMKMNKEGMVRCDTAVGTPDYISPEVLKSQGGDGYYGRECDWWSVGVFLYEMLVGDTPFYADSLVGTYSKIMNHKNSLTFPDDNDISKEAKNLICAFLTDREVRLGRNGVEEIKRHLFFKNDQWAWETLRDTVAPVVPDLSSDIDTSNFDDLEEDKGEEETFPIPKAFVGNQLPFVGFTYYSNRRYLSSANPNDNRTSSNADKSLQESLQKTIYKLEEQLHNEMQLKDEMEQKCRTSNIKLDKIMKELDEEGNQRRNLESTVSQIEKEKMLLQHRINEYQRKAEQENEKRRNVENEVSTLKDQLEDLKKVSQNSQLANEKLSQLQKQLEEANDLLRTESDTAVRLRKSHTEMSKSISQLESLNRELQERNRILENSKSQTDKDYYQLQAILEAERRDRGHDSEMIGDLQARITSLQEEVKHLKHNLEKVEGERKEAQDMLNHSEKEKNNLEIDLNYKLKSLQQRLEQEVNEHKVTKARLTDKHQSIEEAKSVAMCEMEKKLKEEREAREKAENRVVQIEKQCSMLDVDLKQSQQKLEHLTGNKERMEDEVKNLTLQLEQESNKRLLLQNELKTQAFEADNLKGLEKQMKQEINTLLEAKRLLEFELAQLTKQYRGNEGQMRELQDQLEAEQYFSTLYKTQVKELKEEIEEKNRENLKKIQELQNEKETLATQLDLAETKAESEQLARGLLEEQYFELTQESKKAASRNRQEITDKDHTVSRLEEANSMLTKDIEILRRENEELTEKMKKAEEEYKLEKEEEISNLKAAFEKNINTERTLKTQAVNKLAEIMNRKDFKIDRKKANTQDLRKKEKENRKLQLELNQEREKFNQMVVKHQKELNDMQAQLVEECAHRNELQMQLASKESDIEQLRAKLLDLSDSTSVASFPSADETDGNLPESRIEGWLSVPNRGNIKRYGWKKQYVVVSSKKILFYNDEQDKEQSNPSMVLDIDKLFHVRPVTQGDVYRAETEEIPKIFQILYANEGECRKDVEMEPVQQAEKTNFQNHKGHEFIPTLYHFPANCDACAKPLWHVFKPPPALECRRCHVKCHRDHLDKKEDLICPCKVSYDVTSARDMLLLACSQDEQKKWVTHLVKKIPKNPPSGFVRASPRTLSTRSTANQSFRKVVKNTSGKTS [ROCK1]	-0.0278	-0.147	-0.118	-0.138	50.4	50.2
MAAHRPGPLKQQNKAHKGGRHRGRGSAQRDGKGRLALKTLSKKVRKELSRVDQRHRASQLRKQKKEAVLAEKRQLGGKDGPPHQVLVVPLHSRISLPEAMQLLQDRDTGTVHLNELGNTQNFMLLCPRLKHRWFFTSARPGDLHVVLDMAKVADTILFLLDPLEGWDSTGDYCLSCLFAQGLPTYTLAVQGISGLPLKKQIDTRKKLSKAVEKRFPHDKLLLLDTQQEAGMLLRQLANQKQQHLAFRDRRAYLFAHAVDFVPSEENNLVGTLKISGYVRGQTLNVNRLLHIVGYGDFQMKQIDAPGDPFPLNPRGIKPQKDPDMAMEICATDAVDDMEEGLKVLMKADPGRQESLQAEVIPDPMEGEQTWPTEEELSEAKDFLKESSKVVKKVPKGTSSYQAEWILDGGSQSGGEGDEYEYDDMEHEDFMEEESQDESSEEEEEYETMTIGESVHDDLYDKKVDEEAEAKMLEKYKQERLEEMFPDEVDTPRDVAARIRFQKYRGLKSFRTSPWDPKENLPQDYARIFQFQNFTNTRKSIFKEVEEKEVEGAEVGWYVTLHVSEVPVSVVECFRQGTPLIAFSLLPHEQKMSVLNMVVRRDPGNTEPVKAKEELIFHCGFRRFRASPLFSQHTAADKHKLQRFLTADMALVATVYAPITFPPASVLLFKQKSNGMHSLIATGHLMSVDPDRMVIKRVVLSGHPFKIFTKMAVVRYMFFNREDVLWFKPVELRTKWGRRGHIKEPLGTHGHMKCSFDGKLKSQDTVLMNLYKRVFPKWTYDPYVPEPVPWLKSEISSTVPQGGME [TSR1]	-0.634	0.699	5.63	0.0446	48.3	50.6
MDATALERDAVQFARLAVQRDHEGRYSEAVFYYKEAAQALIYAEMAGSSLENIQEKITEYLERVQALHSAVQSKSADPLKSKHQLDLERAHFLVTQAFDEDEKENVEDAIELYTEAVDLCLKTSYETADKVLQNKLKQLARQALDRAEALSEPLTKPVGKISSTSVKPKPPPVRAHFPLGANPFLERPQSFISPQSCDAQGQRYTAEEIEVLRTTSKINGIEYVPFMNVDLRERFAYPMPFCDRWGKLPLSPKQKTTFSKWVRPEDLTNNPTMIYTVSSFSIKQTIVSDCSFVASLAISAAYERRFNKKLITGIIYPQNKDGEPEYNPCGKYMVKLHLNGVPRKVIIDDQLPVDHKGELLCSYSNNKSELWVSLIEKAYMKVMGGYDFPGSNSNIDLHALTGWIPERIAMHSDSQTFSKDNSFRMLYQRFHKGDVLITASTGMMTEAEGEKWGLVPTHAYAVLDIREFKGLRFIQLKNPWSHLRWKGRYSENDVKNWTPELQKYLNFDPRTAQKIDNGIFWISWDDLCQYYDVIYLSWNPGLFKESTCIHSTWDAKQGPVKDAYSLANNPQYKLEVQCPQGGAAVWVLLSRHITDKDDFANNREFITMVVYKTDGKKVYYPADPPPYIDGIRINSPHYLTKIKLTTPGTHTFTLVVSQYEKQNTIHYTVRVYSACSFTFSKIPSPYTLSKRINGKWSGQSAGGCGNFQETHKNNPIYQFHIEKTGPLLIELRGPRQYSVGFEVVTVSTLGDPGPHGFLRKSSGDYRCGFCYLELENIPSGIFNIIPSTFLPKQEGPFFLDFNSIIPIKITQLQ [CAPN7]	0.0756	-0.306	-0.374	-0.0174	50.4	49.7
MTMPVNGAHKDADLWSSHDKMLAQPLKDSDVEVYNIIKKESNRQRVGLELIASENFASRAVLEALGSCLNNKYSEGYPGQRYYGGTEFIDELETLCQKRALQAYKLDPQCWGVNVQPYSGSPANFAVYTALVEPHGRIMGLDLPDGGHLTHGFMTDKKKISATSIFFESMPYKVNPDTGYINYDQLEENARLFHPKLIIAGTSCYSRNLEYARLRKIADENGAYLMADMAHISGLVAAGVVPSPFEHCHVVTTTTHKTLRGCRAGMIFYRKGVKSVDPKTGKEILYNLESLINSAVFPGLQGGPHNHAIAGVAVALKQAMTLEFKVYQHQVVANCRALSEALTELGYKIVTGGSDNHLILVDLRSKGTDGGRAEKVLEACSIACNKNTCPGDRSALRPSGLRLGTPALTSRGLLEKDFQKVAHFIHRGIELTLQIQSDTGVRATLKEFKERLAGDKYQAAVQALREEVESFASLFPLPGLPDF [SHMT1]	0.366	-2.14	-2.12	-0.0876	58.2	58.2
MEALPLLAATTPDHGRHRRLLLLPLLLFLLPAGAVQGWETEERPRTREEECHFYAGGQVYPGEASRVSVADHSLHLSKAKISKPAPYWEGTAVIDGEFKELKLTDYRGKYLVFFFYPLDFTFVCPTEIIAFGDRLEEFRSINTEVVACSVDSQFTHLAWINTPRRQGGLGPIRIPLLSDLTHQISKDYGVYLEDSGHTLRGLFIIDDKGILRQITLNDLPVGRSVDETLRLVQAFQYTDKHGEVCPAGWKPGSETIIPDPAGKLKYFDKLN [PRDX4]	-0.00958	-1.92	-4.08	-0.0673	58.4	62.8
MKLPARVFFTLGSRLPCGLAPRRFFSYGTKILYQNTEALQSKFFSPLQKAMLPPNSFQGKVAFITGGGTGLGKGMTTLLSSLGAQCVIASRKMDVLKATAEQISSQTGNKVHAIQCDVRDPDMVQNTVSELIKVAGHPNIVINNAAGNFISPTERLSPNAWKTITDIVLNGTAFVTLEIGKQLIKAQKGAAFLSITTIYAETGSGFVVPSASAKAGVEAMSKSLAAEWGKYGMRFNVIQPGPIKTKGAFSRLDPTGTFEKEMIGRIPCGRLGTVEELANLAAFLCSDYASWINGAVIKFDGGEEVLISGEFNDLRKVTKEQWDTIEELIRKTKGS [DECR1]	0.0868	0.81	-1.85	0.263	55.7	55.5
MSLSSGASGGKGVDANPVETYDSGDEWDIGVGNLIIDLDADLEKDQQKLEMSGSKEVGIPAPNAVATLPDNIKFVTPVPGPQGKEGKSKSKRSKSGKDTSKPTPGTSLFTPSEGAASKKEVQGRSGDGANAGGLVAAIAPKGSEKAAKASRSVAGSKKEKENSSSKSKKERSEGVGTCSEKDPGVLQPVPLGGRGGQYDGSAGVDTGAVEPLGSIAIEPGAALNPLGTKPEPEEGENECRLLKKVKSEKMESPVSTPAVLPIHLLVPVVNNDISSPCEQIMVRTRSVGVNTCDVALATEPECLGPCEPGTSVNLEGIVWQETEDGMLVVNVTWRNKTYVGTLLDCTRHDWAPPRFCDSPTSDLEMRNGRGRGKRMRPNSNTPVNETATASDSKGTSNSSKTRAGANSKGRRGSQNSSEHRPPASSTSEDVKASPSSANKRKNKPLSDMELNSSSEDSKGSKRVRTNSMGSATGPLPGTKVEPTVLDRNCPSPVLIDCPHPNCNKKYKHINGLKYHQAHAHTDDDSKPEADGDSEYGEEPILHADLGSCNGASVSQKGSLSPARSATPKVRLVEPHSPSPSSKFSTKGLCKKKLSGEGDTDLGALSNDGSDDGPSVMDETSNDAFDSLERKCMEKEKCKKPSSLKPEKIPSKSLKSARPIAPAIPPQQIYTFQTATFTAASPGSSSGLTATVAQAMPNSPQLKPIQPKPTVMGEPFTVNPALTPAKDKKKKDKKKKESSKELESPLTPGKVCRAEEGKSPFRESSGDGMKMEGLLNGSSDPHQSRLASIKAEADKIYSFTDNAPSPSIGGSSRLENTTPTQPLTPLHVVTQNGAEASSVKTNSPAYSDISDAGEDGEGKVDSVKSKDAEQLVKEGAKKTLFPPQPQSKDSPYYQGFESYYSPSYAQSSPGALNPSSQAGVESQALKTKRDEEPESIEGKVKNDICEEKKPELSSSSQQPSVIQQRPNMYMQSLYYNQYAYVPPYGYSDQSYHTHLLSTNTAYRQQYEEQQKRQSLEQQQRGVDKKAEMGLKEREAALKEEWKQKPSIPPTLTKAPSLTDLVKSGPGKAKEPGADPAKSVIIPKLDDSSKLPGQAPEGLKVKLSDASHLSKEASEAKTGAECGRQAEMDPILWYRQEAEPRMWTYVYPAKYSDIKSEDERWKEERDRKLKEERSRSKDSVPKEDGKESTSSDCKLPTSEESRLGSKEPRPSVHVPVSSPLTQHQSYIPYMHGYSYSQSYDPNHPSYRSMPAVMMQNYPGSYLPSSYSFSPYGSKVSGGEDADKARASPSVTCKSSSESKALDILQQHASHYKSKSPTISDKTSQERDRGGCGVVGGGGSCSSVGGASGGERSVDRPRTSPSQRLMSTHHHHHHLGYSLLPAQYNLPYAAGLSSTAIVASQQGSTPSLYPPPRR [ZNF609]	0.0412	-1.11	2.18	0.204	49.9	52.1
MAAAGAAATHLEVARGKRAALFFAAVAIVLGLPLWWKTTETYRASLPYSQISGLNALQLRLMVPVTVVFTRESVPLDDQEKLPFTVVHEREIPLKYKMKIKCRFQKAYRRALDHEEEALSSGSVQEAEAMLDEPQEQAEGSLTVYVISEHSSLLPQDMMSYIGPKRTAVVRGIMHREAFNIIGRRIVQVAQAMSLTEDVLAAALADHLPEDKWSAEKRRPLKSSLGYEITFSLLNPDPKSHDVYWDIEGAVRRYVQPFLNALGAAGNFSVDSQILYYAMLGVNPRFDSASSSYYLDMHSLPHVINPVESRLGSSAASLYPVLNFLLYVPELAHSPLYIQDKDGAPVATNAFHSPRWGGIMVYNVDSKTYNASVLPVRVEVDMVRVMEVFLAQLRLLFGIAQPQLPPKCLLSGPTSEGLMTWELDRLLWARSVENLATATTTLTSLAQLLGKISNIVIKDDVASEVYKAVAAVQKSAEELASGHLASAFVASQEAVTSSELAFFDPSLLHLLYFPDDQKFAIYIPLFLPMAVPILLSLVKIFLETRKSWRKPEKTD [PIGS]	0.0826	2.4	4.4	-0.13	52.6	53.1

— the supplement of paper PMC5998384
